The record followed here is PMC13134614, “In vitro liquid-liquid phase separation induced by respiratory syncytial virus proteins and RNA” (Science Advances, 2025).

The target of data set [1] is T1, M2-1 (Respiratory syncytial virus, UniProt P04545 1-194).
T1 sequence: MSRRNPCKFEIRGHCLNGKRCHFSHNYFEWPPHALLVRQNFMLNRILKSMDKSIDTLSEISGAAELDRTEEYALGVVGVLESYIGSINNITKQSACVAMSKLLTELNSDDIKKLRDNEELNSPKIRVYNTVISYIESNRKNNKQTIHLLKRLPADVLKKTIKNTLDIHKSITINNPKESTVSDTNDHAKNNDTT
The data set is described as follows: EMSA (native agarose gel, Amido black protein stain); 10 uM protein, 15 uM RNA; no band shift (none or too weak to detect); EMSA: 20 mM Tris pH 8, 150 mM NaCl, 30 min room temperature, 1% native agarose in 1X Tris-glycine; PhaseScan: 20 mM Tris-HCl pH 7.4, 150 mM NaCl, no crowding agent. The conditions noted are these: protein: recombinant; tags: GST fusion vector pGEX-M2-1; chain copies: 4; single strand. (In general: Mobility shift assays separate free from complexed probe on a gel.)

The target of data set [2] is T1, M2-1. In words: EMSA (native agarose gel, Amido black protein stain); 10 uM protein, 15 uM RNA; clear band shift; EMSA: 20 mM Tris pH 8, 150 mM NaCl, 30 min room temperature, 1% native agarose in 1X Tris-glycine; PhaseScan: 20 mM Tris-HCl pH 7.4, 150 mM NaCl, no crowding agent. The conditions noted are these: protein: recombinant; tags: GST fusion vector pGEX-M2-1; chain copies: 4; single strand.

The target of data set [3] is T2, RSV nucleoprotein N fused to mCherry (N-mCherry), N rings (respiratory syncytial virus (RSV), UniProt P03418 1-391).
T2 construct: Nucleoprotein N of respiratory syncytial virus, 391 residues; from the plasmid pET-mCherry-N; The results call the sample of the MDS experiment 'N rings' (N-RNA oligomers holding bacterial RNA); The plasmid is named pET-mCherry-N, the methods of MDS say 'N-mCherry', so the end of mCherry is open; source: E. coli BL21 (DE3), purified (gel filtration)
T2 sequence (looked up): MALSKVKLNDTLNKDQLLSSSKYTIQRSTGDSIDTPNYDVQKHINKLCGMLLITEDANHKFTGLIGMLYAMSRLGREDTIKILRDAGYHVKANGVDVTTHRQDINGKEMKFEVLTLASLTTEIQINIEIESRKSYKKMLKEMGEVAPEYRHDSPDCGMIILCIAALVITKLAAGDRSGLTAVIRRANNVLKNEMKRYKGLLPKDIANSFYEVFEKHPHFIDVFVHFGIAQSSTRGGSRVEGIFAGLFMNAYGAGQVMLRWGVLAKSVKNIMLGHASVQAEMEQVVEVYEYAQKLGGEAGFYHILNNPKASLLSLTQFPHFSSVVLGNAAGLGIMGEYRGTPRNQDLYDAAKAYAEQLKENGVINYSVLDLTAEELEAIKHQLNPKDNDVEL
The data set is described as follows: microfluidic diffusional sizing (MDS); 0.5 μM N-mCherry with increasing concentrations of unlabeled P or P domains, incubated 30 min in the dark; 150 mM NaCl, 20 mM tris pH 7.4; hydrodynamic radius of N in triplicate, Fluidity One-M. To be noted: both partners purified.

The Kd is the equilibrium constant for the complex coming apart.

For AGCGUAC (ssRNA, 5' OH) [5' OH 7-mer RNA], the binding result in data set [1] is given as “no binding”.

B1: 5' cap 7-mer RNA (ssRNA)
RNA: AGCGUAC
modifications: 5' cap (7mGppp, 2'-O-methyl on first nucleotide as generally described); cap G not counted in strand
As to B1, the binding result in data set [2] is “binds”.

B2: RSV phosphoprotein P residues 127-241 (domain or fragment, respiratory syncytial virus (RSV), UniProt P03421 127-241, looked up)
chain: TNDNITARLDRIDEKLSEILGMLHTLVVASAGPTSARDGIRDAMIGLREEMIEKIRTEALMTNDRLEAMARLRNEESEKMAKDTSDEVSLNPTSEKLNNLLEGNDSDNDLSLEDF
notes: Holds the tetramerization domain POD (131 to 151); source: E. coli BL21 (DE3), purified (gel filtration)
In data set [3], B2 displayed a Kd of 2.6 ± 0.9 µM.
